Changes are numbered by the printed parent chain. Each block holds one binder with its values, some of them ahead of it.
Experiments:
[1] = molecular target: T1, recombinant human sc-uPA (human, UniProt P00749 21-431); assay: cell-based or functional assay
[2] = molecular target: T2, recombinant cynomolgus sc-uPA (cynomolgus monkey, UniProt P16227 29-433 (Papio cynocephalus entry)); assay: cell-based or functional assay
[3] = molecular target: T1, recombinant human sc-uPA; assay: cell-based or functional assay; remark: listed apart in the source
[4] = molecular target: recombinant human tc-uPA (R&D Systems, #1310-SE) (human, UniProt P00749 21-178; P00749 179-431); assay: cell-based or functional assay
[5] = molecular target: T1, recombinant human sc-uPA; assay: SPR (Biacore T200), mAb immobilised, sc-uPA as analyte
Experimental: (§1) Affinities of the anti-uPA mAbs towards human and cynomolgus sc-uPA (SEQ ID NO: 1 and 3) were measured by SPR using a Biacore T200 instrument (GE Healthcare). These studies were performed using a direct binding procedure. […] Injection time was 60 sec., followed by 180 sec. dissociation. Regeneration was performed by injection of two short pulses of glycine-HCl pH 1.5.
(§2) The kinetic parameters (kₐ, kd and KD) for the interaction were calculated using a 1:1 interaction Langmuir fitting model.
(§3) Results are shown in Table 2 Association rate constant (ka) and Dissociation rate constant (kd) were measured. Equilibrium dissociation constant is calculated as KD=kd/ka.

[6] = molecular target: T2, recombinant cynomolgus sc-uPA; assay: as above
Experimental: as §1, §2, §3

[7] = molecular target: T1, recombinant human sc-uPA; assay: SPR, mAb immobilised
Experimental: The binding affinity to recombinant human sc-uPA protein (SEQ ID NO:1) was measured by surface plasmon resonance (SPR).
(§4) The experiments were performed on a Biacore™ instrument (GE Healthcare) and analysed with the BIAcore 4000 Evaluation Software. Anti-human uPA mAb variants were directly immobilized at 150-600 RU on flow cells of a CM5 sensor chip (GE Healthcare; cat. # BR-1000-12) via amine coupling, respectively. Recombinant human sc-uPA was diluted in HBS-N (GE Healthcare Cat BR-1006-70) with 1% BSA buffer with a dilution factor 3× ranging 1000-0.13 nM. Recombinant human sc-uPA was injected for 60 s, followed by a 600 s dissociation phase. Binding curves were measured at 25° C. with a flow rate of 30 μL/min. Regeneration of the chip surface was performed with pH1.5 Glycine for 25 s at 30 μl/min. Determination of the kinetic parameters was performed by fitting with a 1:1 binding model. Binding affinities were calculated and are stated in Table 17 below.

[8] = molecular target: T1, recombinant human sc-uPA; assay: SPR (Biacore), mAb immobilised, sc-uPA as analyte, 25 C
Experimental: (§5) In order to compare with murine mAb, the binding profile to recombinant human sc-uPA protein (SEQ ID NO: 1) and cynomolgus sc-uPA (SEQ ID NO: 3) was measured by surface plasmon resonance (SPR).
as §4, with “Software. […]” for “Software. Anti-human uPA mAb variants were directly immobilized at 150-600 RU on flow cells of a CM5 sensor chip (GE Healthcare; cat. # BR-1000-12) via amine coupling, respectively.”, “sc-uPA and cynomolgus sc-uPA proteins were” for “sc-uPA was”, “model. Kinetic parameters” for “model. Binding affinities”, “Table 14” for “Table 17”

[9] = molecular target: T2, recombinant cynomolgus sc-uPA; assay: as above
Experimental: as §5
as §4, with “Software. […]” for “Software. Anti-human uPA mAb variants were directly immobilized at 150-600 RU on flow cells of a CM5 sensor chip (GE Healthcare; cat. # BR-1000-12) via amine coupling, respectively.”, “sc-uPA and cynomolgus sc-uPA proteins were” for “sc-uPA was”, “model. Kinetic parameters” for “model. Binding affinities”, “Table 14” for “Table 17”

[10] = molecular target: T1, recombinant human sc-uPA; assay: SPR, mAb immobilised; remark: listed apart in the source
Experimental: The binding affinity to recombinant human sc-uPA protein (SEQ ID […]) was measured by surface plasmon resonance (SPR).
as §4, with “20” for “17”

[11] = molecular target: endogenously derived human uPA (primary human M1/M2 macrophages; human neutrophil granulocytes) (human, UniProt P00749 21-431); assay: cell-based or functional assay

B1: 0266-0000-0010 (antibody, IgG1, V domains shown)
VH: DVKLVESGGGLVKPGGSLKLSCVASGFTFSSYTMSWVRQTPEKRLEWVATISGGGSHIYYADSVKGRFTISRDNAKNTLYLQMSSLKSEDTAIYYCTRDGRDGSWFAYWGQGTLVTVSA
VL: DIVMTQSPATLSVTPGDRVSLSCRTSQSIGDYLHWYQQKSHESPRLLIKYVSQSISGIPSRFSGSGSGSDFTLSINSVESEDVGVYYCQNSHSFPLTFGSGTKLELK
IC50, coupled zymogen activation assay, sc-uPA immobilized on uPAR of U937 cells [1]: < 0.7 nM
IC50, coupled zymogen activation assay with cynomolgus sc-uPA [2]: 0.9 nM
IC50, coupled zymogen activation assay (Ex. 5) [3]: < 0.7 nM
IC50, sc-uPA activation assay (Ex. 8) [3]: 5 nM
IC50, tc-uPA catalytic assay (Ex. 7) [4]: 113 nM
Kd [5]: 1.02 nM
koff [5]: 0.000345 s⁻¹
kon [5]: 340000 M⁻¹ s⁻¹
Kd [6]: 0.121 nM
koff [6]: 5.74e-05 s⁻¹
kon [6]: 473000 M⁻¹ s⁻¹

B2: rec0266-0000-0010 (antibody, mouse IgG1, V domains shown)
VH: B1 VH
VL: DIVMTQSPATLSVTPGDRVSLSCRTSQSIGDYLHWYQQKSHESPRLLIKYVSQSISGIPSRFSGSGSGSDFTLSINSVESEDVGVYYCQNSHSFPLTFGSGTKLELKR
notes: also called mAb rec0266-0000-0010
Kd [7]: 0.47 nM
Kd [8]: 0.944 nM
koff [8]: 0.00053 s⁻¹
kon [8]: 561000 M⁻¹ s⁻¹
Kd [9]: 0.0526 nM
koff [9]: 0.000104 s⁻¹
kon [9]: 1.98e+06 M⁻¹ s⁻¹
Kd [10]: 0.47 nM

B7: rec0266-0000-0010-VL_S91L (antibody, mouse IgG1, name in Kabat numbering, V domains shown)
VH: B1 VH
VL: B2 VL with S91L
Kd [10]: 5.7 nM

B8: rec0266-0000-0010-VL_S91P (antibody, mouse IgG1, name in Kabat numbering, V domains shown)
VH: B1 VH
VL: B2 VL with S91P
Kd [10]: 2 nM

B10: 0266-0000-0043 (antibody, human IgG4 S228P, kappa, V domains shown)
VH: DVKLVESGGGLVKPGGSLRLSCAASGFTFSSYTMSWVRQAPGKGLEWVATISGGGSHIYYADSVKGRFTISRDNAKNSLYLQMNSLRAEDTAVYYCTRDGRDGSWFAYWGQGTLVTVSS
VL: DIVMTQSPAFLSVTPGEKVTISCRTSQSIGDYLHWYQQKPDQSPKLLIKYVSQSISGIPSRFSGSGSGSDFTFTISSLEAEDAATYYCQNSHSFPLTFGGGTKVEIKR
notes: also called rec0266-0000-0043
IC50, coupled zymogen activation assay, sc-uPA immobilized on uPAR of U937 cells [1]: < 0.7 nM
IC50, plasmin generation by human M1/M2 macrophages [11]: 2.1 nM
Kd [8]: 1.78 nM
koff [8]: 0.0009 s⁻¹
kon [8]: 506000 M⁻¹ s⁻¹
Kd [9]: 0.112 nM
koff [9]: 0.000164 s⁻¹
kon [9]: 1.46e+06 M⁻¹ s⁻¹

B11: 0266-0000-0015 (antibody, IgG1, V domains shown)
VH: QIQLVQSGPELKKPGETVRISCKASGYTFTDYGMNWIKQTPGKGLKWMGWINTYSGEPTYSDEFKGRFAFSLETSASTASLQINNLKNEDMATYFCARDFDDYDSSRYFDVWGAGTTVTVSS
VL: DIVMSQSPSSLGVSVGEKLTMTCKSSQSLLYSSYQKNFLAWYQQKPGQSPKLLISWASTRDSGVPDRFTGSGSGTDFTLTISSVKAEDLAVYYCQQYYIYPPTFGGGTKLEIK
notes: also called hybridoma m-uPA-1F58A1
IC50, coupled zymogen activation assay, sc-uPA immobilized on uPAR of U937 cells [1]: < 0.7 nM
IC50, coupled zymogen activation assay (Ex. 5) [3]: < 0.7 nM
IC50, sc-uPA activation assay (Ex. 8) [3]: 3 nM
IC50, tc-uPA catalytic assay (Ex. 7) [4]: 100 nM
Kd [5]: 0.37 nM
koff [5]: 0.000381 s⁻¹
kon [5]: 1.03e+06 M⁻¹ s⁻¹
Kd [6]: 5.32 nM
koff [6]: 0.00717 s⁻¹
kon [6]: 1.35e+06 M⁻¹ s⁻¹

Now from value to binder:

Kd [10]: 0.88 nM
B3: rec0266-0000-0010-VL_S91T (antibody, mouse IgG1, name in Kabat numbering, V domains shown)
VH: B1 VH
VL: B2 VL with S91T

Kd [10]: 12 nM
B4: rec0266-0000-0010-VL_S91V (antibody, mouse IgG1, name in Kabat numbering, V domains shown)
VH: B1 VH
VL: B2 VL with S91V

Kd [10]: 3.6 nM
B5: rec0266-0000-0010-VL_S91Y (antibody, mouse IgG1, name in Kabat numbering, V domains shown)
VH: B1 VH
VL: B2 VL with S91Y

Kd [10]: 3.1 nM
B6: rec0266-0000-0010-VL_S91R (antibody, mouse IgG1, name in Kabat numbering, V domains shown)
VH: B1 VH
VL: B2 VL with S91R

Kd [10]: 2.2 nM
B9: rec0266-0000-0010-VL_S91Q (antibody, mouse IgG1, name in Kabat numbering, V domains shown)
VH: B1 VH
VL: B2 VL with S91Q

Source: US20160159924A1 (Novo Nordisk, published 2016)
